Earlier results in article PMC2164963.
pKd: −log10 of the molar value.

Target: EBNA-1 (Epstein-Barr virus) (UniProt P03211)

In the case of EBNA-1 (from UniProt P03211), the pKd is listed as 9.00.
